From patent publication US20230242616A1 (LUDWIG MAXIMILIANS UNIVERSIT T M NCHEN, published 2023)
Where no end group is shown, it is not given here.

Legend:
[1] = biological target: T1, human macrophage migration-inhibitory factor (MIF) (human, UniProt P14174 2-115, limits assumed, Alexa-Fluor 488 or Monolith NT-647 (MST-Red) label where so named); assay: fluorescence spectroscopic binding assay
T1 construct: Biologically active recombinant MIF prepared as reported previously; also called Alexa-MIF; Alexa-488-MIF

[2] = biological target: T1, human macrophage migration-inhibitory …; assay: cell-based or functional assay
[3] = biological target: T1, human macrophage migration-inhibitory …; assay: fluorescence spectroscopic titration, apparent Kd; Fluos-ngm titrated with MIF
Description: (§1) Peptides were dissolved and analyzed by MALDI-TOF-MS; ^{[a]}Peptides were synthesized with free amino-N-terminal and amidated C-terminal; ^{[b]}monoisotopic molar mass with an additional hydrogen [M + H]⁺; ^{[c]} App. Kds, are means (±SD) from three independent titration experiments which were performed in aqueous […], pH 7.4, containing 1% HFIP.
(§2) Fluorescence spectroscopy. Fluorescence spectroscopic titrations were performed as described^{28, 32}. Fluorescence spectra were recorded using a JASCO FP-6500 fluorescence spectrophotometer. […] Apparent KD values (app. KD) were calculated assuming a 1/1 binding model³².

[4] = biological target: T1, human macrophage migration-inhibitory …; assay: fluorescence spectroscopic titration, apparent Kd; Alexa-488-MIF titrated with ngm
Description: as §1, §2

[5] = biological target: T1, human macrophage migration-inhibitory …; assay: fluorescence spectroscopic titration
[6] = biological target: T1, human macrophage migration-inhibitory …; assay: fluorescence spectroscopic titration of Fluos-ngm-LD3 with increasing MIF [panel B]
Description: as §2

[7] = biological target: T1, human macrophage migration-inhibitory …; assay: fluorescence spectroscopic titration; row labelled msR4M-L5 but with the K-K-K linker
Description: as §1, §2

T1 sequence (P14174 2-115 limits assumed): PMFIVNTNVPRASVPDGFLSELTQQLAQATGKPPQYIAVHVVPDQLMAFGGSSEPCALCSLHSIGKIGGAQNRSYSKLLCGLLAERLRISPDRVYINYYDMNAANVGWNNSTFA

| Binder | Kd [1] [nM] | inhibitory capacity in the Dil-LDL foam cell assay [2] | Kd [3] [nM] | Kd [4] [nM] | further results |
| --- | --- | --- | --- | --- | --- |
| NWYFGNFLCK-NH2 [ECL1 fragment 101-110] | 51 | ~80 % of full-length msR4M-L1 |  |  |  |
| WYFGNFLCKRRRDRFYPNDLW-NH2 (designed binder, not fully specified; printed as WYFGNFLCK-RRR-DRFYPNDLW, also called ngm-LR3; msR4M-R3) [msR4M-LR3 ([ECL1(102-110)]-R-R-R-[ECL2(187-195)])] |  |  | 16.8 | 110 | Kd [5]: 22 nM |
| WYFGNFLCKDDDDRFYPNDLW-NH2 (designed binder, not fully specified; printed as WYFGNFLCK-DDD-DRFYPNDLW, also called ngm-LD3; msR4M-D3) [msR4M-LD3 ([ECL1(102-110)]-D-D-D-[ECL2(187-195)])] |  |  | 36 | 246 | IC50 of inhibition of MIF-mediated monocyte migration (3D, single cell tracking) [2]: 18.4 nM; IC50 of inhibition of MIF-triggered Dil-oxLDL uptake (foam cell assay) [2]: 1.4 nM; Kd [5]: 33 nM; EC50 (read off the curve) [6]: ~30 nM |
| DRFYPNDLW-NH2 [ECL2(187-195)] | 286 | ~80 % of full-length msR4M-L1 |  |  |  |
| ICDRFYPNDLW-NH2 [ECL2 fragment 185-195] | 324 | ~80 % of full-length msR4M-L1 |  |  |  |
| WYFGNFLCKKKKDRFYPNDLW-NH2 (designed binder, not fully specified; printed as WYFGNFLCK-KKK-DRFYPNDLW, also called ngm-LK3; msR4M-K3) [msR4M-LK3 ([ECL1(102-110)]-K-K-K-[ECL2(187-195)])] |  |  | 36.4 | 44.8 | Kd [7]: 30 to 40 nM |
| WYFGNFLCK-NH2 [ECL1(102-110)] | 80 | ~80 % of full-length msR4M-L1 |  |  |  |
| ANWYFGNFLCK-NH2 [ECL1 fragment 100-110] | 215 | ~80 % of full-length msR4M-L1 |  |  |  |
